Sequences and labels used below:
B1: Syntenin-1 (Mus musculus), O08992 (parent)
chain: MSLYPSLEDLKVDKVIQAQTAYSANPASQAFVLVDASAALPPDGNLYPKLYPELSQYMGLSLNEAEICESMPMVSGAPAQGQLVARPSSVNYMVAPVTGNDAGIRRAEIKQGIREVILCKDQDGKIGLRLKSIDNGIFVQLVQANSPASLVGLRFGDQVLQINGENCAGWSSDKAHKVLKQAFGEKITMTIRDRPFERTVTMHKDSSGHVGFIFKSGKITSIVKDSSAARNGLLTDHHICEINGQNVIGLKDAQIADILSTAGTVVTITIMPTFIFEHIIKRMAPSIMKSLMDHTIPEV
partner: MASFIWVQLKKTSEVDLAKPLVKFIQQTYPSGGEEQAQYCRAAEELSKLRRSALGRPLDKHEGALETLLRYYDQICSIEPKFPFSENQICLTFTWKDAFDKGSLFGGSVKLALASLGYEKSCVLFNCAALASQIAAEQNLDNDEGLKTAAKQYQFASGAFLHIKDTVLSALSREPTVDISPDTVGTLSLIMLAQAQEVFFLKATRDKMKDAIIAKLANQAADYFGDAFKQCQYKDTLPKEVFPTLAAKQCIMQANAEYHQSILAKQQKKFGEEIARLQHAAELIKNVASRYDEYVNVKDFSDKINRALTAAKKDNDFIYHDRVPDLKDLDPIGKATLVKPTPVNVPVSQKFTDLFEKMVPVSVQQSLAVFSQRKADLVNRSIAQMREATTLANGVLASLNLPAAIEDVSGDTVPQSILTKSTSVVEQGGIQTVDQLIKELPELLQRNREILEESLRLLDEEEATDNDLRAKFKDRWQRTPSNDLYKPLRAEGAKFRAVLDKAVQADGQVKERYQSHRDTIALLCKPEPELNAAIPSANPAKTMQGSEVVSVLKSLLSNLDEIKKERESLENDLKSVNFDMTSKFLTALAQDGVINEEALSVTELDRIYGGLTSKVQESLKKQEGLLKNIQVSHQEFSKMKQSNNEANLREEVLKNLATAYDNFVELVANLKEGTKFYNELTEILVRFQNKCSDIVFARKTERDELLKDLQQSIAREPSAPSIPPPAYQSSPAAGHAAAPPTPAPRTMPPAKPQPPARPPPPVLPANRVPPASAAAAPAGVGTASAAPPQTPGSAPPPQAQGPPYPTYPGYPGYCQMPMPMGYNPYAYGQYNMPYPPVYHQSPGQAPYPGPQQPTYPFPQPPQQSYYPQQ

Variants of B1 are the subject of the first experiment. The settings on record: with pdc6i_mouse Pdcd6ip.
On to Y4A;P5A;Y47A;P48A;Y51A;P52A, for which the “effect of a mutation on the interaction” value was “disrupting interaction”.

The variants in a further experiment derive from B1. The settings on record: with pdc6i_mouse Pdcd6ip. The source holds these as a separate data set.
With Y4A;P5A;Y47A;P48A;Y51A;P52A, the “effect of a mutation on the interaction” value is recorded as “disrupting interaction”.
As to Y51A;P52A, the “effect of a mutation on the interaction” value is “disrupting interaction”.
